Results: patent US20240117030A1 (Pfizer, published 2024)
Residue numbers refer to the chain shown, from its start.

T1: recombinant human IL-4 (human, UniProt P05112 25-153)
T1 sequence (looked up): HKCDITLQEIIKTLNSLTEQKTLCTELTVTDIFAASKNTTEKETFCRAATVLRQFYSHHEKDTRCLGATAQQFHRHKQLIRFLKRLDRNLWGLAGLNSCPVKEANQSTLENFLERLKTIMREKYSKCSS

B1: IL413TSLP-0002 (other)
heavy: EVQLVESGGGLVQPGGSLRLSCAASGFTFSSYAMSWVRQAPGKGLEWVASISSGDTTYYPDSVKGRFTISRDNAKNSLYLQMNSLRAEDTAVYYCARNEGYYFGLTLWGQGTLVTVSSASTKGPSVFPKAPSSKSTSGGTAALGCLVKDYFPEPVTVSWNSGALTSGVHTFPAVLQSSGLYSLSSSVTVPSSSLGTQTYICNVNHKPSNTKVDKKVEPKSCDKTHTCPPCPAPEAAGAPSVFLFPPKPKDTLMISRTPEVTCVVVDVSHEDPEVKFNWYVDGVEVHNAKTKPREEQYNSTYRVVSVLTVLHQDWLNGKEYKCKVSNKALPAPIEKTISKAKGQPREPQVCTLPPSREEMTKNQVSLWCLVKGFYPSDIAVEWESNGQPENNYKTTPPVLDSDGSFFLYSKLTVDKSRWQQGNVFSCSVMHEALHNHYTQKSLSLSPGK
chain 1: QMQLVESGGGVVQPGRSLRLSCAASGFTFRTYGMHWVRQAPGKGLEWVAVIWYDGSNKHYADSVKGRFTITRDNSKNTLNLQMNSLRAEDTAVYYCARAPQWELVHEAFDIWGQGTMVTVSSGQPKAAPSVTLFPPSSEELQANKATLVCLISDFYPGAVTVAWKADSSPVKAGVETTTPSKQSNNKYAASSYLSLTPEQWKSHRSYSCQVTHEGSTVEKTVAPTECSGGGGSEVTLRESGPALVKPTQTLTLTCTFSGFSLSNFGEGLSWIRQPPGKGLEWLAHIYWDDDKRYNPSLKSRLTISKDTSRNQVVLTMTNMDPVDTATYYCARRETVFYWYFDVWGQGTTVTVSSASTKGPSVFPEAPSSKSTSGGTAALGCLVKDYFPEPVTVSWNSGALTSGVHTFPAVLQSSGLYSLGSVVTVPSSSLGTQTYICNVNHKPSNTKVDKKVEPKSCDKTHTCPPCPAPEAAGAPSVFLFPPKPKDTLMISRTPEVTCVVVDVSHEDPEVKFNWYVDGVEVHNAKTKPREEQYNSTYRVVSVLTVLHQDWLNGKEYKCKVSNKALPAPIEKTISKAKGQPREPQVYTLPPCREEMTKNQVSLSCAVKGFYPSDIAVEWESNGQPENNYKTTPPVLDSDGSFFLVSKLTVDKSRWQQGNVFSCSVMHEALHNHYTQKSLSLSPGK
light 1: DIQMTQSPSSLSASVGDRVTITCKASESVDHFGWSLVHWYQQKPGKAPKLLIYRASNLESGVPSRFSGSGSGTDFTLTISSLQPEDFATYYCQQSNEDPWTFGGGTKVEIKRTVAAPSVFIFPPSDEQLKSGTASVSCLLNNFYPREAKVQWKVDNALQSGNSQESVTEQDSKDSTYSLDSTLTLSKADYEKHKVYACEVTHQGLSSPVTKSFNRGEC
light 2: B1 light 1 with E27Q, H31E, F32D, W34D, L36Y, V37M, H38N, R54A, W100P, D180K
chain 2: SYVLTQPPSVSVAPGQTARITCGGNNLGSKSVHWYQQKPGQAPVLVVYDDSDRPSWIPERFSGSNSGNTATLTISRGEAGDEADYYCQVWDSSSDHVVFGGGTKLTVLASTKGPSVFPLAPSSKSTSGGTAALGCLVKDYFPEPVTVSWNSGALTSGVHTFPAVLQSSGLYSLSSVVTVPSSSLGTQTYICNVNHKPSNTKVDKKVEPKSC
B2: IL413TSLP-0008 (other)
heavy: B1 heavy
chain 1: SYVLTQPPSVSVAPGQTARITCGGNNLGSKSVHWYQQKPGQAPVLVVYDDSDRPSWIPERFSGSNSGNTATLTISRGEAGDEADYYCQVWDSSSDHVVFGGGTKLTVLASTKGPSVFPLAPSSKSTSGGTAALGCLVKDYFPEPVTVSWNSGALTSGVHTFPAVLQSSGLYSLSSVVTVPSSSLGTQTYICNVNHKPSNTKVDKKVEPKSCGGGGSEVTLRESGPALVKPTQTLTLTCTFSGFSLSNFGEGLSWIRQPPGKGLEWLAHIYWDDDKRYNPSLKSRLTISKDTSRNQVVLTMTNMDPVDTATYYCARRETVFYWYFDVWGQGTTVTVSSASTKGPSVFPEAPSSKSTSGGTAALGCLVKDYFPEPVTVSWNSGALTSGVHTFPAVLQSSGLYSLGSVVTVPSSSLGTQTYICNVNHKPSNTKVDKKVEPKSCDKTHTCPPCPAPEAAGAPSVFLFPPKPKDTLMISRTPEVTCVVVDVSHEDPEVKFNWYVDGVEVHNAKTKPREEQYNSTYRVVSVLTVLHQDWLNGKEYKCKVSNKALPAPIEKTISKAKGQPREPQVYTLPPCREEMTKNQVSLSCAVKGFYPSDIAVEWESNGQPENNYKTTPPVLDSDGSFFLVSKLTVDKSRWQQGNVFSCSVMHEALHNHYTQKSLSLSPGK
light 1: B1 light 1
light 2: B1 light 1 with E27Q, H31E, F32D, W34D, L36Y, V37M, H38N, R54A, W100P, D180K
chain 2: QMQLVESGGGVVQPGRSLRLSCAASGFTFRTYGMHWVRQAPGKGLEWVAVIWYDGSNKHYADSVKGRFTITRDNSKNTLNLQMNSLRAEDTAVYYCARAPQWELVHEAFDIWGQGTMVTVSSGQPKAAPSVTLFPPSSEELQANKATLVCLISDFYPGAVTVAWKADSSPVKAGVETTTPSKQSNNKYAASSYLSLTPEQWKSHRSYSCQVTHEGSTVEKTVAPTECS
B3: IL413TSLP-0007 (other)
heavy: EVTLRESGPALVKPTQTLTLTCTFSGFSLSNFGEGLSWIRQPPGKGLEWLAHIYWDDDKRYNPSLKSRLTISKDTSRNQVVLTMTNMDPVDTATYYCARRETVFYWYFDVWGQGTTVTVSSASTKGPSVFPEAPSSKSTSGGTAALGCLVKDYFPEPVTVSWNSGALTSGVHTFPAVLQSSGLYSLGSVVTVPSSSLGTQTYICNVNHKPSNTKVDKKVEPKSCDKTHTCPPCPAPEAAGAPSVFLFPPKPKDTLMISRTPEVTCVVVDVSHEDPEVKFNWYVDGVEVHNAKTKPREEQYNSTYRVVSVLTVLHQDWLNGKEYKCKVSNKALPAPIEKTISKAKGQPREPQVYTLPPCREEMTKNQVSLSCAVKGFYPSDIAVEWESNGQPENNYKTTPPVLDSDGSFFLVSKLTVDKSRWQQGNVFSCSVMHEALHNHYTQKSLSLSPGK
chain 1: SYVLTQPPSVSVAPGQTARITCGGNNLGSKSVHWYQQKPGQAPVLVVYDDSDRPSWIPERFSGSNSGNTATLTISRGEAGDEADYYCQVWDSSSDHVVFGGGTKLTVLASTKGPSVFPLAPSSKSTSGGTAALGCLVKDYFPEPVTVSWNSGALTSGVHTFPAVLQSSGLYSLSSVVTVPSSSLGTQTYICNVNHKPSNTKVDKKVEPKSCGGGGSEVQLVESGGGLVQPGGSLRLSCAASGFTFSSYAMSWVRQAPGKGLEWVASISSGDTTYYPDSVKGRFTISRDNAKNSLYLQMNSLRAEDTAVYYCARNEGYYFGLTLWGQGTLVTVSSASTKGPSVFPKAPSSKSTSGGTAALGCLVKDYFPEPVTVSWNSGALTSGVHTFPAVLQSSGLYSLSSSVTVPSSSLGTQTYICNVNHKPSNTKVDKKVEPKSCDKTHTCPPCPAPEAAGAPSVFLFPPKPKDTLMISRTPEVTCVVVDVSHEDPEVKFNWYVDGVEVHNAKTKPREEQYNSTYRVVSVLTVLHQDWLNGKEYKCKVSNKALPAPIEKTISKAKGQPREPQVCTLPPSREEMTKNQVSLWCLVKGFYPSDIAVEWESNGQPENNYKTTPPVLDSDGSFFLYSKLTVDKSRWQQGNVFSCSVMHEALHNHYTQKSLSLSPGK
light 1: B1 light 1 with E27Q, H31E, F32D, W34D, L36Y, V37M, H38N, R54A, W100P, D180K
light 2: B1 light 1
chain 2: B2 chain 2

The binders below were run against T1, recombinant human IL-4 (assay: cell-based or functional assay).

a-hIL-4 bioassay IC50, pM)	Binder
8.59 pM	B1
9.07 pM	B2
7.09 pM	B3

Each binder was assayed against recombinant human TSLP (glycosylated long form) (human, UniProt Q969D9 29-159) (assay: cell-based or functional assay).

a-TSLP TARC bioassay (IC50; pM)	Binder
16.4 pM	B1
17.7 pM	B2
11.7 pM	B3

These binders were tested against recombinant human IL-13 (human, UniProt P35225 35-146) (assay: cell-based or functional assay).
Chain of recombinant human IL-13 (P35225 35-146 limits assumed): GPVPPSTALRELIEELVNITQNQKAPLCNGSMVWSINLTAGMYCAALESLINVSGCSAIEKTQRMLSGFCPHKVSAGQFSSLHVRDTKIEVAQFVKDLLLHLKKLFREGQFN

a-hIL-13 bioassay (IC50, pM)	Binder
10.6 pM	B1
10.6 pM	B2
46.8 pM	B3
